Results on 2 molecules are retold here after patent US20120039874 (published 2012).

This assay has as its target T1, human AILIM-IgFc (human, UniProt Q9Y6W8).
T1 chain: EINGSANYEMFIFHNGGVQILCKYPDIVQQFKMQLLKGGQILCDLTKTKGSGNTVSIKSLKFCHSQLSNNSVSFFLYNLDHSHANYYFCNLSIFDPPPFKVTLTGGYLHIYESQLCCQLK
Briefly: SPR.

B1: AII289 (JMab-138) (antibody, V domains shown)
VH: EVQLVESGGGLVQPGGSLRLSCAASGFTFSSYDMHWVRQATGKGLEWVSAIGTAGDTYYPGSVKGRFTISRENAKNSLYLQMNSLRAGDTAVYYCVRDNRKVTHEHYYYYGMDVWGQGTTVTVSS
VL: EIVLTQSPGTLSLSPGERATLSCRASQNIRSSYLAWYQQKPGQAPGLLIYGASSRATGIPDRFSGSGSGTDFTLTISRLEPEDFAVYYCQQFGSSPMCSFGQGTKLEIKR
B1 yielded a Kd of 1.1 nM.

B2: AII394 (JMab-139) (antibody, V domains shown)
VH: EVQLVESGGGLVQPGGSLRLSCAASGFTFSSYDMHWVRQATGKGLEWVSAIGTAGDTYYPGSVKGRFTISRENAKNSLYLQMNSLRAGDTAVYYCVRDKRTVTHEHYYYYGMDVWGQGTTVTVSS
VL: EIVLTQSPGTLSLSPGERATLSCRASQSISSSSLAWYQQKPGQAPGLLIFGASSRATGIPDRFSGSGSGTDFTLTISRLEPEDFAVYYCQQFGSSPMCSFGQGTKLEIKR
Turning to B2, the Kd amounted to 0.77 nM.

In general, Kd refers to the free concentration of one partner at which half of the binding sites on the other are occupied at equilibrium, for simple one-to-one binding. A high value points to lower affinity.
